Assay results reported in the RNAGym collection of RNA variant scans (doi:10.1073/pnas.2313332121).

B1: TPR t1 (parent)
chain: GACCAAUCUGCCCUCAGAGCUCGAGAACAUCUUCGGAUGCAGAGGAGGCAGGCUUCGGUGGCGCGAUAGCGCCAACGUCCUCAACCUCCAAUGCAUCCCACCACAUGAUGAUGCCUGAAGAGCCUUGGUUUUUUG

Variants of: B1
Test: polymerase ribozyme fitness, log enrichment relative to wild type (log ratio); higher = more active; in vitro selection for triplet polymerase activity
In short: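 Mutant libraries were PCR-built and transcribed for each subunit of a heterodimeric triplet polymerase ribozyme and selected for one round in triplicate at −7 °C, frozen, before gel excision of extended constructs and streptavidin-bead capture. Input and output libraries were Illumina-sequenced, keeping genotypes with ≥10 input reads and ≥1 read per output. Fitness is a logarithmic ratio of genotype to wild-type enrichment, in base 2, using inverse-variance-weighted replicate averages.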

Going from C12G C124G to C12G G17A C62U C101U, the “polymerase ribozyme fitness (log ratio)” value falls from 0.742 to -5.49.

Compared with C12G G19A C20U C98U, C12G G19A G93U U106A A111G C115A is lower in “polymerase ribozyme fitness (log ratio)” value: -3.29 for the first, -6.62 for the second.

Compared with C12G G36A C94A, C12G G36C A66U C85U C86A is lower in “polymerase ribozyme fitness (log ratio)” value: -3.18 for the first, -3.38 for the second.

First: C12G G36C G58A
Second: C12G G36U G61U A111C
The “polymerase ribozyme fitness (log ratio)” value of the first is lower: -1.29 for the first, 0.246 for the second.

First: C12G G39U G61A U106C G127C
Second: C12G G39U G61U
The “polymerase ribozyme fitness (log ratio)” value of the first is lower: -2.63 for the first, 0.0718 for the second.

Going from C12G G42A to C12G G42C C70A U78A A91U, the “polymerase ribozyme fitness (log ratio)” value falls from -1.36 to -5.9.

Compared with C12G G44A C73G C82U, C12G G45C U55C C72U C85A U96A is lower in “polymerase ribozyme fitness (log ratio)” value: -0.977 for the first, -4.29 for the second.

Going from C12G G45U C72A G127A to C12G G47C C53U C56U G113A A118C, the “polymerase ribozyme fitness (log ratio)” value falls from -2.17 to -5.05.

Going from C12G G47U to C12G G47U U87G U116A C124A, the “polymerase ribozyme fitness (log ratio)” value rises from -1.82 to -1.26.

C12G G48A G93A and C12G G48C G135U are within 0.2 log units of each other in “polymerase ribozyme fitness (log ratio)” value: -1.44 for the first, -1.51 for the second.

Going from C12G G48U C62U to C12G G51A, the “polymerase ribozyme fitness (log ratio)” value falls from -1 to -2.1.

Compared with C12G G51C G71A, C12G G52U is higher in “polymerase ribozyme fitness (log ratio)” value: -6.1 for the first, -0.405 for the second.

Compared with C12G G58A G61A C62U C124G, C12G G60A C115G is lower in “polymerase ribozyme fitness (log ratio)” value: 0.824 for the first, -4.95 for the second.

First: C12G G61A G128U
Second: C12G G61C C104U C115G U133C
The “polymerase ribozyme fitness (log ratio)” value of the first is higher: -1.84 for the first, -5.69 for the second.

First: C12G G61U G120U
Second: C12G G63U A66G U109A A119U G127U
The “polymerase ribozyme fitness (log ratio)” value of the first is higher: 2.2 for the first, -5.43 for the second.

First: C12G G65C U67G A95G A108U A119U C123U
Second: C12G G69C C72U A90U U116G
The “polymerase ribozyme fitness (log ratio)” value of the first is higher: -5.89 for the first, -6.29 for the second.

Going from C12G G69U C115A to C12G G71C A105G U125A, the “polymerase ribozyme fitness (log ratio)” value falls from 0.211 to -4.36.

Going from C12G G93A to C12G G93U U112A, the “polymerase ribozyme fitness (log ratio)” value rises from -0.233 to 0.281.

Compared with C12G G110U U130A, C12G G113U is lower in “polymerase ribozyme fitness (log ratio)” value: -1.34 for the first, -3.38 for the second.

Compared with C12G G117C U126G, C12G G120A is higher in “polymerase ribozyme fitness (log ratio)” value: -3.28 for the first, 1.87 for the second.

Compared with C12G U14A A26U C72U A90G C123A, C12G U14C C62U C85U C86U is higher in “polymerase ribozyme fitness (log ratio)” value: -2.58 for the first, -1.07 for the second.

Compared with C12G U14C G45A A68G U106A, C12G U14C U59G C73G is higher in “polymerase ribozyme fitness (log ratio)” value: -4.06 for the first, -2.57 for the second.

Going from C12G U21A G77C A84U to C12G U33G C76A A100C C123G, the “polymerase ribozyme fitness (log ratio)” value falls from -1.73 to -5.88.

First: C12G U59G A90G G113A
Second: C12G U78A G93A C124G
The “polymerase ribozyme fitness (log ratio)” value of the first is lower: -2.53 for the first, 0.89 for the second.

Compared with C12G U96A, C12U A16C C73A A83C is higher in “polymerase ribozyme fitness (log ratio)” value: -0.352 for the first, 0.284 for the second.

First: C12U A16C G42U U78A A121C
Second: C12U A16C U59A U92C C124A
The “polymerase ribozyme fitness (log ratio)” value of the first is lower: -0.175 for the first, 0.146 for the second.

First: C12U A16G U106A
Second: C12U A16U A66C A105C C124G
The “polymerase ribozyme fitness (log ratio)” value of the first is higher: 0.278 for the first, -5.31 for the second.

C12U A16U C20U G71C C114A G127U and C12U A16U C22G U38G G52C A111U are within 0.2 log units of each other in “polymerase ribozyme fitness (log ratio)” value: -3.54 for the first, -3.72 for the second.

Going from C12U A18C C62U to C12U A18C G52U C79A G127C, the “polymerase ribozyme fitness (log ratio)” value falls from -2.39 to -2.61.

Compared with C12U A18G A41U G47C U109G C124G, C12U A18U A108U C114U A121C U129C is lower in “polymerase ribozyme fitness (log ratio)” value: -2.39 for the first, -6.88 for the second.

First: C12U A18U C40U U106C C114G
Second: C12U A26C G45C G61C A75C C82A
The “polymerase ribozyme fitness (log ratio)” value of the first is higher: -2.23 for the first, -6.28 for the second.

Compared with C12U A26G C56U G69U G117A U125G, C12U A26G G45A A84U U132C is higher in “polymerase ribozyme fitness (log ratio)” value: -4.97 for the first, -3.75 for the second.

C12U A27G G69A C88A U125G and C12U A29G U92C C94A are within 0.2 log units of each other in “polymerase ribozyme fitness (log ratio)” value: -3.8 for the first, -3.95 for the second.

Compared with C12U A29U C56G U87G, C12U A41C G60C G128C is lower in “polymerase ribozyme fitness (log ratio)” value: -2.63 for the first, -3.6 for the second.

Compared with C12U A41U, C12U A46C A75U is higher in “polymerase ribozyme fitness (log ratio)” value: -0.786 for the first, -0.187 for the second.

Going from C12U A46C C53G C72U C73G A84C A95C to C12U A46G C56A A105U, the “polymerase ribozyme fitness (log ratio)” value rises from -5.01 to -1.73.

Going from C12U A46G C62A U67C U112A U129G to C12U A46U, the “polymerase ribozyme fitness (log ratio)” value rises from -4.48 to -0.688.

Compared with C12U A46U A121C, C12U A46U G51U G60A is lower in “polymerase ribozyme fitness (log ratio)” value: -0.0492 for the first, -3.42 for the second.

Going from C12U A46U G51U G69U A74U to C12U A50G C56A C85G, the “polymerase ribozyme fitness (log ratio)” value rises from -3.04 to -1.73.

First: C12U A50U C56G
Second: C12U A50U U59G A119U
The “polymerase ribozyme fitness (log ratio)” value of the first is lower: -1.24 for the first, -0.98 for the second.

Going from C12U A68G to C12U A75G U92A, the “polymerase ribozyme fitness (log ratio)” value falls from -1.94 to -2.45.

For C12U A83C G93A, the “polymerase ribozyme fitness (log ratio)” value was -0.192.
